Measurements taken from the supplement of paper PMC12636428.

System: Saccharomyces cerevisiae
Test: transcriptional activation domain activity (GFP:mCherry ratio, weighted mean of sorted bins, harmonized to initial dataset scale) (arbitrary fluorescence ratio units); higher = stronger transcriptional activation
Conditions: beta-estradiol 1 µM; induction time 4 h
Procedure, shortened: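 Barcoded protein tiles fused to an estradiol-inducible synthetic transcription factor were integrated at the yeast URA3 locus, in diploids carrying a GFP reporter. Cultures were diluted 1:5 into SC with 1 uM beta-estradiol, held 4 hours at 30 °C, sorted into 8 bins by GFP:mCherry ratio, and barcodes sequenced. Tiles under 50 reads were discarded. Activation activity is the read-weighted mean of bin median fluorescence, averaged across barcodes, then linearly mapped onto the initial dataset scale.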

Sequence	transcriptional activation domain activity
GKPRGYAFVEYEREKDMKAAYKEGDGMKITGRRVVVDVERGRTVKGWKPRRLG	36700
MGFFILFYFLFSLWVCGFGFFSRLSVLYLGGFVLFLINHLSLFLYIIFFFFMF	38800
ENEDDAFGALNYNSLDATTMSAFDNNVDPFNILKSSPAQDQQFIKPSMMLSDN	77200
IMYIICLTIAPSFLCGVLYVSLSRFIAALGHQYSLVPPWLISWVFIFGDFLSL	62600
HLCHLVPSLPFHLPFFFFEPFLSKTFTSFFLFFFLWLSPLNTNHPPIFLFFHT	80200
MHCIVVSCSLFLWFVFCKYLIYFKNAFTDISVFLGFLFGWFLSLLFHLSIVFG	48500
RGTQKREKRGKEKGEGGTWGRAEGEGKRGGKEKGRREEKRGKKKEAGGAGGRG	23500
MTEPMLFFVLYFIRLLPFSFIFFHFLSFSLSILFFVILFSSSFHPFSSSFFFI	53400
ASNAPGTGASRSAAAAATAAISRAKGAAQQQQAQKKPDASSSRPAGKQPAVKE	26900
MPTPGLDHSLQMMPDGNSGVNPSLLGDFDLFSASAYQAELDYLSFPFMDSFLA	140000
VDLSDLGEAVINQSNHNNDNDNSNNGDGNNNNTISELVCFDESIADLYPVEID	71500
VHLTLNLGTYLRVISIGKPFPMWLDYWYNYGYILYCAILQLYELWQIVILIWL	60100
KFWFFLLFYYGFYNLTALLMVSQYFNLYSFHWWPKSIGGLWSTFFFWLFSMFL	58400
REDRQRKQQREKERAAREAEGTQRRRRKRRRTNGGAKTEEGEEENDGEEEEDG	52800
GGGGQKRKAGAAQDDASSQQPKKKKAKKGGKGKGAQQQKQQGGASGSGGGQAS	31500
LGIRSILETAYRINRLTHMCLQHLLTRCNNLEPLELVGSVLFFLDKKLKRPPE	50300
QLTRGNWSDLFFLFIFLWIVLFFFLLHWSWAWLLVFVLSICSSGLLGAILFFF	27200
SEEAQEEAQQPKKKKRTRASDMWKEEGKAEKKEKKKAKKGKKHSKLEEPAEKA	14500
PPASTHTSVTSSPPVNDQWKDYALVLVRLMPMDKLSKPSFRYIIKSTYVRAVC	58000
LPSLAQIDVLIRRERMVTIERHPLCLSLVVASQYTLGPLLLLRIVHCIYKTYG	58200
AAKDRRHLRSRSQATYLILLGIMLWGLLRWRKTNVFKLWHLLVRQGACWILIV	60400

Sequence	transcriptional activation domain activity
NRTLSTKDLIVLRLCSSFFAYFIISLFYCLMNLAFQIVVDRKFGQAGFIVFWM	62100
FTMLIGRKRPDVSTCVLIAVVISQCLFYVVVFFVKILGLVKYFLLFSSLADKL	56300
GSDAPASGRAKSKTPKATGAKNGGKGGKGDATEEAEAKREEGGEEKRAAKKSK	20000
NQGSGSKTGGEVDLVGEREEVMRSVHDSRAQLSEDYEYERRNISLAVPLGRGQ	41000
QSFQTLLLILFLPPPLISPFLYVTFFFFPFFPFFFALPRFWDRWALSAFFFLL	49200
VYPENYETASVNTERDMELLVGHFDFMAKEAFLADSISLCSTEEELERRLDTP	102000
MMFCLRSFIPLLLLPLPPSLSPLHLVLLLFLTYILNRPCIYCSFLLLILFVSS	60600
AAPVKKEEPKKEETPKAAEETATAPVAETPAVAAAAATEAPKEEAKEEPKRRS	35400
CFFYSAIWLTTIPHCTGRCVRPCGVHLINLGHVCRNHSRYWGYCICNNKMTPY	57600
YQNLYFIQLLVSCWALIGMLHLSLNRFEHLHFMVYMRPSGSKYLVAISWCLFL	66900
PFIIVTGLVVFVYYSYLDRIFLVLLRKLHRKALAIAYFVPLNIFIFLFIISYC	63700
MALKAREELEEIYGMPVIYIPVFISCMHRINAVLLSLGNFLLISGAYLRSSFV	53200
TFGLQTSDKNHYIVDAIHVAVARVGVYVQYPQLQKWSLGKIFYISVWKMRTKF	68800
KEEAESEAEASAPKGKKGTVKKPAAAAKAKDVDEPKAKRGRPKKTVAKDEVEN	< 6570
GAKDLDDAVSIKVNEDGTYDVSVHVADVSFFVKPNTALDRDARKRATSVYLVQ	48400
GRWSYLRTSEMILTFFYKNIMWTLVLFWYQLMCSFTGTMMFDYSYITLYNLVF	63400
ERVGERRGSGKTERQRAHDAPEREGARGEKGRRARGTNGEGRGGEEREVRQEG	25600
AAMLLQRVDPNILGNAANVDKTLIHSMAWCLAKIMLFFDPSYITGLLQAYFKL	46300
MQSGHLFRLFGIAKTVLFFFSSVSCSLLHFLFSSFPFPIFPFVLSICYVFHFF	46600
AAAAKPASGAKTGGKGKGAKSKKSKATVESEDEGEGADGAPAKKKTKKGKTSD	44200
SAHWILKAYYTDRRVLFGFCFGNEAFFMLIYLMEYLDGFCFYFVSFLALLAFP	57200

Sequence	transcriptional activation domain activity
MPVVKLMAEPFLFLFLFYLSVLALAFFYFFYFFYFFFLKILPGMMVFSSLGCF	55500
SRLLHLLLVTLGLLVVLLYSFFPSPDVFVLSPLRSPLFLLFSPSFFFCLFCLF	75400
YRLLLSLVVRLYFFLRFSLSHTLRTVVIVLAPLTYFLSGITYIFFTAPYRVLF	61800
RRRKSNSTKPGNAGSKPAKKNKGANSNERERESKEVDEDEDEGNGGGEGEGEE	8620
AAERRQQGHRAKENEKRRQEEARRGRKERGAGGGKAKAGRKPAGQPRRRRSRE	32900
FRPAPPPCSPAPPSPSSSPSSSSPPPPPPSRARRWSSAARARNAATTPCASSG	37900
APPPPQPAPPVSVAPSKKTSKSKVDAPASNNEPEPVSAPKKGRKGKSKAIAQT	12200
GGEDIAAAENTGGSPAAGSGRGRGRSSRGGRGRGSGRGRGRGGSNAAGGSAAG	16500
PPILVWMRYNAFFILYPLGAGSECLLTFFSLDEAHAWWPHYALLLKIILLIYI	73800
DANASSSSTSSTQANNYIDFHWNNIKPELRDLICQSYKDFLINELGPDQIDLP	51100
LITIPINYTVYIFVLFPFYVLSGTLCVGYYFHSYSPEFWLLRAWDFFFCFIPM	74300
EDSEEKPRKKTPRKAAASKPKSKGKKKADSDSGEESDAEPRAKKSATKGKGKK	25500
LAEGAATEEAKTEEGSAPAGETAALAEAAATEEAAATEEVKEEKKEEAATTKA	29900
LTKKALDRLLGGDLSSLVAATISVSDWILDVAISSHDRISCILVTAHNTVLQA	35700
WDGGPTSKLTHVLLTYRQSILVTVYSHLLLLDHSSQVWWRWMNIFFTLVIWSI	71000
PLVRWMLDYVINHGEIVHSHPSIRTLATSLIDHPYFLSFICSSFFIEPRGLSG	34800
IIHLVNLAQVTVFLVHRILYGIIPLFEIQTCAYFPLLVSLWHMTYILFYVVMF	36100
LCIDDKYILIYGQEDSNHKVTVRKVTLQLFMCLINYTVRNILWWSLSGLITGF	38400
KEENKKDDLKEATKKGRKPRAAKEEAKEEAEGVKPKGRKRKATEEASDEIVVA	23400
FLLTLLCMEVVLHFDYCVAISKANPDWSKYTPIQLSLLSYFNLHILWLKLLIP	63400
WHIRCVLLLVAFLHICYQVSYCACGLILVCLNFIFVRQPGGLEMLLTLKTAFY	57800

Sequence	transcriptional activation domain activity
LLLPFVVRRFGCWVCGFYLVLLFFIFPLLLYVVLSSCFSILFTSPFIFYFSSF	61200
NEGCKIITVFNGIFGIVYSFAPMCYFCLCIRVFFFALYKRHWYYHALLSLFWL	70700
MSADYAIGQFRYLAKLLLVHGHWNTYRIGVLHQVFFYKNLIWTGCLLIFQIFT	45800
SFSAYFIACCVVIHVTQLVGSPLYLFNKPLYYAYMARTKQSFGVLVTTITQWW	68900
PPSLVDLVANTIAACHSETTPETVSLQIVKALLSLVLSSTILVHHSSLLKAVR	50700
CDSVYLHQDQCAHVLEYCMDATPGLINYIQLYFCSPIKPFIFLIMCCWLLFLF	51500
MCSILPTVCNQYLIFLSFVSCPSMLYLISYFFLMWSFFSLHNWFFCWVPCCVL	52700
LTEVTSPRFIASIIACLCNHFAWFFYFIDPHHYHALFTPVEICLFFLVVVWFV	52100
DTSSFFLRFFHFPFLQLFLLQCLISPCLYVRTCPISLLLLWWCFYSVFFCVRG	50300
GVLALSPCDDTTLKATMGVIEELLIYLYFAGQMRELFYWACRVVNLSVHHGHA	69100
IVFLLRVLIRCLPTLTQILDFELVSAELSLAELPDTQFKLKELGVSTKVVFTQ	45800
MTMRKSFEYSFSREIYFLFFFLFFSFLFFLSFLSFSLSLFFFFPLHPGLFRLV	54400
APSPTPDDDADMKKKDGDGKKDGEDGKKKMKMVTALKNCSFTVPAGTTAALVG	39400
WMIWFRVGFACIFSSCVFLRVYGLYRIFIQRKPFTRYSFYVPFTIFTVCVFIF	69400
LSRVTGKEHDQMCRIVLGILVDLRLPDNQNPTRLIWAVRALLDFLYLAQYPIH	67200
MFIFLFFIHLLSHLCFILILILLFSILLFYVPVICLSTFFILFYHHHLLCTHQ	32200
MWCTRWYIPLLLLPIPTAPPYFLILFLFSLTLHARPCFYCILLLLTLFLSSCY	58500
FVWILETLNTGFSAHAIEYFAIYNKGNMMMLWSVPWTISVSNNLLCSTLGLNH	32200
AAAPDVENEPAGRRKAAAAGVEQGGGHPHMLKGVCGNAGWGDAQAAAGKACKG	26900
GTAIEGLVIRFYIRKYEDSNNNNLEQNKTGQVRVSSPRAYLRIVGYTWVLAWF	38700
